Results reported in US6017886A, “Use of NDF peptide as growth factor for sensory epithelium” (Amgen Inc., priority 1999, dated 2000).

B1: KGF: recombinant derived keratinocyte growth factor (KGF) (protein, UniProt P21781 32-194, looked up)
Fibroblast growth factor 7: CNDMTPEQMATNVNCSSPERHTRSYDYMEGGDIRVRRLFCRTQWYLRIDKRGKVKGTQEMKNNYNIMEIRTVAVGIVAIKGVESEFYLAMNKEGKLYAKKECNEDCNFKELILENHYNTYASAKWTHNGGEMFVALNQKGIPVRGKKTKKEQKTAHFLPMAIT
B2: GDNF: recombinant derived glial-derived neurotrophic factor (GDNF) (protein, UniProt P39905 78-211, looked up)
Glial cell line-derived …: SPDKQMAVLPRRERNRQAAAANPENSRGKGRRGQRGKNRGCVLTAIHLNVTDLGLGYETKEELIFRYCSGSCDAAETTYDKILKNLSRNRRLVSDKVGQACCRPIAFDDDLSFLDDNLVYHILRKHSAKRCGCI
B3: FGF-10: recombinant derived FGF-10 (protein, UniProt O15520 38-208, looked up)
Fibroblast growth factor 10: QALGQDMVSPEATNSSSSSFSSPSSAGRHVRSYNHLQGDVRWRKLFSFTKYFLKIEKNGKVSGTKKENCPYSILEITSVEIGVVAVKAINSNYYLAMNKKGKLYGSKEFNNDCKLKERIEENGYNTYASFNWQHNGRQMYVALNGKGAPRRGQKTRRKNTSAHFLPMVVHS
B4: CNTF: recombinant derived ciliary-derived neurotrophic factor (CNTF) (protein, UniProt P26441 1-200, looked up)
Ciliary neurotrophic factor: MAFTEHSPLTPHRRDLCSRSIWLARKIRSDLTALTESYVKHQGLNKNINLDSADGMPVASTDQWSELTEAERLQENLQAYRTFHVLLARLLEDQQVHFTPTEGDFHQAIHTLLLQVAAFAYQIEELMILLEYKIPRNEADGMPINVGDGGLFEKKLWGLKVLQELSQWTVRSIHDLRFISSHQTGIPARGSHYIANNKKM

test system: utricular epithelium from seven day-old rats; experiment: BrdU incorporation (mitogenic activity) in primary culture of infant rat utricular sensory epithelium; format: cell-based; details: 50 ng/ml, seventy-two hours culture, infant (seven day-old) rat epithelium; control 50±7
Procedure: Sensory edithelial cells obtained from utricles in the inner ear of both seven day-old (infant) rats and six week-old (adult) rats were isolated with the use of thermolysin treatment; see Corwin et al., Abstracts of the Association for Research in Otolaryngology, Volume 18, page 87 (1995). All edges were trimmed away and the central portion of the epithelium was cut into quarters. Epithelial cells from the infant rats were cultured in DMEM/F12 with 10% FBS (Gibco BRL, Grand Island, N.Y.), and 3 micrograms per milliliter (μg/ml) of mitosis tracer BrdU (Aldrich Chemicals, Milwaukee, Wis.) for seventy-two hours, with or without 50 nanograms per milliliter (ng/ml) of the peptide of SEQ ID NO: 1 or 50 ng/ml of recombinant derived FGF-10, recombinant derived FGF-16, recombinant derived ciliary-derived neurotrophic factor (CNTF), recombinant derived neurotrophic growth facor (NGF), recombinant derived glial-derived neurotrophic factor (GDNF), recombinant derived keratinocyte growth factor (KGF), or a control (no growth factor present). The experiment was ended by fixing in 4% paraformaldehyde for one hour.
After several washes, the explants were immunostained for calretinin (a vestibular organ hair cell marker) using rabbit antiserum (SWant Swiss Antibodies, Belinzona, Switzerland), diluted 1:10,000. The secondary antibody was goat anti-rabbit immunoglobulin conjugated to biotin, diluted 1:1,000. Extensive washes were followed by incubating the explants with egg white avidin conjugated to Cy3, diluted 1:1,000. The explants were fixed again with paraformaldehyde as described above, then processed for BrdU immunostaining (a measure of cell proliferation) using standard immunostaining protocols. The mouse monoclonal ant-BrdU antibody was obtained from Caltag Laboratories of San Franscisco, Calif. The secondary antibody, a goat anti-mouse conjugated to FITC, was obtained from Antibodies, Inc. of Davis, Calif.

Molecule	number of BrdU-positive nuclei per piece of epithelium
B1	89±16
B2	37±13
B3	11±4
B4	23±3
